Results on one substance are retold here after patent US20180360907A1.

This test concerns the target CCR5 on human monocytes (human) (UniProt P51681). The test is described as follows: cell-based or functional assay.

With “human CCL4 (MIP-1β) (from UniProt P13236 24-92) (ligand)”, the chemotactic index of human monocytes, without RAP-103 (times over control) was found to be 2.
